Source: the DeepSol protein solubility set

Experiment: soluble on expression in E. coli; label from the status in PepcDB or PDB records

Row | Sequence | soluble on expression in E. coli
1 | MKYILVTGGVISGIGKGIIASSIGTILKSCGLRVTAIKIDPYINIDAGTFSPYEHGEVFVLNDGGEVDLDLGNYERFLDINLYKDNNITTGKIYQHVINKERRGDYLGKTVQVVPHITDAVQEWVMNQAKVPVDGNKEEPQICVIELGGTIGDIEGMPFVEAFRQFQFKAKRENFCNIHVSLVPQLSATGEQKTKPTQNSVRALRGLGLSPDLIVCRSSTPIEMAVKEKISMFCHVNPEQVICIHDVSSTYRVPVLLEEQSIVKYFKERLHLPIGAHHHHHH | soluble
2 | MVSEIVVDVGINEKRVALLEDRELVELFIERNDCERLVGNIYRGRVESVLPGMQAAFIDIGYEKNAFLYVGDAIPQKEFSEDDEEIYSDVKSYNIEEILRPGQEITVQVTKEPIGTKGPRVTTHITLPGRQMVLLPNADYIGISRRIEDEEERAKLRKIAEKIKPKNMGIIVRTVSEGKREEDFKSDLNFLVKLWAKIKQREQSGPVPRCLHKDLSVIYRAVRDIFTWNIDRFVINDRQEYNKVLELVEMISPALKMRVEYFNKNIDLFEYYQIDSMIQKALAKKVWLKCGGYIVIERTEALTVIDVNTGKYVGVNNLEDTVLRTNLDAVKEIGKQLRLRDIGGIIIIDFIDMHDPEHQKQVLEALKQVLKKDRTKTTVVGMTGLGLIEMTRKKVREGLESMMLQDCPYCEGRGKILSPESVARNVEKEISKYFTKTIANAIMVEVHPTVAEVLRGEDNDNLARIQNLFNKKVIIKPSAEVGHEEVKGSCKIKCRNI | not soluble
3 | MYEGKVGFDFLGFTVRQFPVGKYHSGKSSSGKLLGYKTLITPSKAKLKIHAQKIGKLIDEHKAVPQSDLIAHLNPVIRGWTNYYSCVVSKRIFNQADTTLFSQLKAWAEHRHPNKSSRWSCQKYWQTVGSDNWVFKPHNQKIRLLKHRETRIVRHILEHHHHHH | not soluble
4 | GMSHSLKDFLEACETLGTLRLIVTSSAAVLEARGKIEKLFYAELAKGKYANMHTEGFEFHLNMEKITQVKFETGEAKRGNFTTYAIRFLDEKQESALSLFLQWGKPGEYEPGQVEAWHTLKEKYGEVWEPLPVQL | soluble
5 | MSLTVRFTESVSKQDLDALFEWAKASYGAESCWKTLYLNGLPLGNLSPEWVERVKKDWEAGCSESSDGIFLNADGWPDMGGRLQHLALGWHCAGLLDGWRNECFDLTDGGGNPLFTLERAAFRPFGLLSRAVHLNGLTESDGRWHFWIGRRSPHKAVDPNKLDNTAAGGVSGGEMPSEAVCRESSEEAGLDKTLLPLIRPVSQLHSLRSVSRGVHNEILYVFDAVLPETFLPENQDGEVAGFEKMDIGGLLDAMLSGNMMHDAQLVTLDAFCRYGLIDAAHPLSEWLDGIREGHHHHHH | not soluble
6 | MGSDKIHHHHHHSCVNDLDTVPLDKDELVSDVVFGNEPLAYEQSLAKIYAGMAIGGNSGGDSDQDVVGIDGGSQASFLRVLWNMQDLPSDIAHCAWNDPGIPEFNHISWGASSPWIKGSYYRLFYQINVANAYLRETAEDKLDARGCDASLKASIKTWRAEARFLRALSYEYALDLYRNVPFVDENSPIGSIPPKQIMAADLFNWIEKELTECVEDMLEPTVGYSQDYGHANKAAAWALLSRLYLNAETYVGQNKYTECITYAKKVIETGYQLEPVYVDMFKADNHLSNEMIFPVRYEGDQTMTWGGMTAFLCWGATATQEEVNAKGAWQGVRAKSSLYNLFLKESGSDADTRKAMLRTDLTTSLEIIDENTFQNNGIPVTKYFNVNKDGTLPPSKEAYVDFPLFRLGEIYLTYAEAVLRGGQGGDRATALRYVNDLRKRAYSDKTLAPISDSDLTLNFIIDERGREFFFEGQRRTDLVRFGLFTTAGYVWPWKGGTAKGKAVENFYNVFPIPSDDIGSNTNLKQNEGY | not soluble
7 | MGSDKIHHHHHHLEISLNEIIDYYAKADVSFVGAFGERVSPQLKVLDRHTNPAGGGLVIPFSGSACFTFDGKPYVIEPGMVVHAGPGMRLSKEVIGDREWEYAVIHYHIPQHERDEYPLFHKDFSLAHGRSAKVPHLVRQILDIQSIPGAAAKFQTKVLFLSLLQEIFTAACGQPGQENSKLIEEAMGYIRLNYADELTVQKVADEFSVERRQFSYLFKRHTGMSPIHYLIECRISKAKELLGSPGCSVKQVAEWVGYTDSLYFSKAFKKYTGVSPSEYREGFAL | not soluble
8 | GPGSMNYEGHLKGHRGWVTSLACPQQAGSYIKVVSTSRDGTAISWKANPDRHSVDSDYGLPNHRLEGHTGFVSCVSLAHATDYALTASWDRSIRMWDLRNGQCQRKFLKHTKDVLAVAFSPDDRLIVSAGRDNVIRVWNVAGECMHEFLRDGHEDWVSSICFSPSLEHPIVVSGSWDNTIKVWNVNGGKCERTLKGHSNYVSTVTVSPDGSLCASGGKDGAALLWDLSTGEQLFKINVESPINQIAFSPNRFWMCVATERSLSVYDLESKAVIAELTPDGAKPSECISIAWSADGNTLYSGHKDNLIRVWSISDAE | soluble
9 | MMKTLLPFFGVVRVSGEDRQTFLHGQLSNDINNLQTGQACYATYNTPKGRVIANMIVVNRGGDLLLIMAQDLLEATVKRLRMFVLRAKAVFEILEDYAVGAELEASAEPLAAQEPNLAFAAQQDSDGICSIALPHGGILRIAPKNTLPPYDAAAENAWRLHEIRSGYPWICAATKETAVAQMLNQHIIGGVHFKKGCYPGQEIIARAQYRGQVKRGLAVLSGNSAAEAGSVLAADGEEAGIVLDSVQDSENFTALAVIKFSAAQKELTVPNGGIFKAVHLFFKTENAELEHHHHHH | soluble
10 | MKYMITSKGDEKSDLLRLNMIAGFGEYDMEYDDVEPEIVISIGGDGTFLSAFHQYEERLDEIAFIGIHTGHLGFYADWRPAEADKLVKLLAKGEYQKVSYPLLKTTVKYGIGKKEATYLALNESTVKSSGGPFVVDVVINDIHFERFRGDGLCMSTPSGTTAYNKSLGGALMHPSIEAMQLTEMASINNRVYRTIGSPLVFPKHHVVSLQPVNDKDFQISVDHLSILHRDVQEIRYEVSAKKIHFARFRSFPFWRRVHDSFIEDLEHHHHHH | soluble
11 | MHHHHHHSSGVDLGTENLYFQSNAMADCYLTEKKKNFIPIQPMMPDELPDWLDTQDARTQQWVKASGFVGLAGTICSIPESTGALQRVLLGVSDYEYSWDFGGLSKVLPPGAFQLNRDDFEDDEYYERALLAFGLGSYQFNAYRKRSPYLAKLFLPQAHRKRVTDWLTTIYLIRDLINTPAEDMGPSELAQAVKHVAKEFEAKVKIIESKDLETEFPAIYAVGRAGSRPPLLIDLKWGDIKAPKVTLVGKGVCFDSGGLDIKTPGGMLLMKKDMGGAAHALGLARMIMLQQLPVRLRLLIPAVENAIGSRSYRPGDVVQTRARKTIEITNTDAEGRVVLADALAEAVKEDPDLIIDFSTLTGAARIALGPNLPALFANQDSLAQALIDASLKTDDPLWRLPLFQPYRNYLKSEVADLTNSSQNRMAGAITAALFLQHFVSDQIPWAHFDIFAWNLEDLPGRPIGGEAMALRAVFHYLEQQYR | soluble
12 | TAKQRDDAIENAEAAKVESEQVAKKATEGELHLAEVLEQANLNSIELKSVSQALDEQSSQLDEQVNALNVNSESQASAAEQMSQQVHHMATGIEESSKFVEELREKSEDVHQQAEKSSELLEDSTQAIGQIITSHEEIMKVADLITSVAEANQLAGFKCGNRSGASRRSGQRFCCGCRASTRAICEE | not soluble
13 | SGLVPGRHMMITMDDIIREGNPTLREVAKEVSLPLSEEDISLGKEMLEFLKNSQDPIKAEELHLRGGVGLAAPQLDISKRIIAVHVPSPDPEADGPSLSTVMYNPKILSHSVQDACLGEGEGCLSVDREVPGYVVRHAKITVSYYDMNGEKHKIRLKNYESIVVQHEIDHINGVMFYDHINDQNPFALKEGVLVIE | soluble
14 | MAGHSHWAQIKHKKAKVDAQRGKLFSKLIREIIVATRLGGPNPEFNPRLRTAIEQAKKANMPWENIERAIKKGAGELEGEQFEEVIYEGYAPGGVAVMVLATTDNRNRTTSEVRHVFTKHGGNLGASGCVSYLFERKGYIEVPAKEVSEEELLEKAIEVGAEDVQPGEEVHIIYTVPEELYEVKENLEKLGVPIEKAQITWKPISTVQINDEETAQKVIKLLNALEELDDVQQVIANFEIPEEILQKVG | soluble
15 | APKASLRLGFSEYSRISNLIVLHLRKVEEEEDESALKRSELVNWYLKEIESEIDSEEELINKKRIIEKVIHRLTHYDHVLIELTQAGLKGSTEGSESYEEDPYLVVNPNYLLED | soluble
16 | MTSSPELARAVAATLARHVTDVVICPGSRNSPLSLELIARDDIRVHTRIDERSAAFLALGLARSSKRHVAVVTTSGTAVANCAPAMIEAAYSHTPLIMVSADRPERLHGTGANQTIEQRGIFNVVDTDHVVDITDLNSISFARNVIHINVALDVPLVDVLPEV | not soluble
